Our source for the stoichiometry N values is publication PMC2141736.

The assay concerns the target Schistosoma japonicum glutathione S-transferase (GST) (Schistosoma japonicum). In words: cross-linking.

Substance “Schistosoma japonicum glutathione S-transferase (GST) (enzyme)” yielded a stoichiometry N of 2.

The term stoichiometry N denotes the number of molecules, sites or subunits per partner or assembly.
